Measurements published in patent publication US5721126.

Biological target: T1, ScaI restriction endonuclease (Streptomyces caespitosus) (UniProt O52691)
T1 sequence: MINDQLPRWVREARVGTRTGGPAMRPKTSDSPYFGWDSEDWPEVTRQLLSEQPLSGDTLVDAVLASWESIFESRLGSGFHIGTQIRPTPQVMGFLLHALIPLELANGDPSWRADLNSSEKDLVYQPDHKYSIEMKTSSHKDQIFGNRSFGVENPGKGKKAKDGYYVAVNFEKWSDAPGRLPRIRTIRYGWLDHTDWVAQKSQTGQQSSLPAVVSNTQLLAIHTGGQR
Assay: cleavage_in_vitro
Details: diluted cell extract, 1 ug DNA, 37 C, 1 h

lambda DNA (ScaI sites)
activity (units/g wet cells): 1e+06
